Experimental data taken from PMC5377324.

Key:
Assay in all cases: ITC
[1] = molecular target: Atx3_(22Q)-IIC (C-terminal fragment, residues 221-373, of isoform-II Atx3, 22Q)
[2] = molecular target: Atx3_(46Q)-IIC (C-terminal fragment, residues 221-373, of isoform-II Atx3, polyQ expanded to 46Q)
[3] = molecular target: Atx3_(6Q)-IIC (C-terminal fragment, residues 221-373, of isoform-II Atx3, polyQ truncated to 6Q)

| Kd [1] [µM] | Kd [2] [µM] | Kd [3] [µM] | Substance |
| --- | --- | --- | --- |
| 50 | 50 | 50 | K48-diUb (Lys48-linked di-ubiquitin) (from UniProt P0CG48 1-76) (complex) |
| 10 | 10 | 10 | P97N (N-terminal domain of P97, residues 1-213) (from UniProt P55072 1-213) (domain or fragment) |
